Publication PMC3269379, “The Host-Pathogen interaction of human cyclophilin A and HIV-1 Vpr requires specific N-terminal and novel C-terminal domains” (BMC Structural Biology, 2011)
Several values for one entry are separate records, joined by “and”; a condition that tells them apart may be missing. Identical values can stand only once.

Experiments:
Conditions in all cases: both partners purified
human cyclophilin A [1] = molecular target: T1, human cyclophilin A (human, UniProt P62937 1-165); experiment: ITC
T1 construct: also called CypA; peptidyl prolyl isomerase cyclophilin A; source: recombinant, highly pure; production and purification described previously [14]

human cyclophilin A [2] = molecular target: T1, human cyclophilin A; experiment: SPR
human cyclophilin A [3] = molecular target: T1, human cyclophilin A; experiment: SPR; remark: listed apart in the source

T1 sequence (P62937 whole entry): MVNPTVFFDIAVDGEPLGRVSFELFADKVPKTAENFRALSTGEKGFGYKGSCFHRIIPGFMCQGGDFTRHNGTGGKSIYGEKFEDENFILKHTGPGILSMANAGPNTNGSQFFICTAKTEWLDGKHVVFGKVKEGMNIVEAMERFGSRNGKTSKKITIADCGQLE

| Binder | Ka (human cyclophilin A [1]) | Kd (human cyclophilin A [1]) | dH (human cyclophilin A [1]) | stoichiometry N (human cyclophilin A [1]) | Kd (human cyclophilin A [2]) | koff (human cyclophilin A [2]) | kon (human cyclophilin A [2]) | binding result (human cyclophilin A [3]) |
| --- | --- | --- | --- | --- | --- | --- | --- | --- |
| GCRHSRIGVTRQRRAR (HIV-1 Vpr residues 75-90; source: synthetic peptide) [Vpr^75-90] | 9e+06 M⁻¹ and 1.7e+07 M⁻¹ | 120 nM and 60 nM | -17.4 kcal/mol and -16.5 kcal/mol | 0.98 and 1 | 280 nM | 0.0063 s⁻¹ | 81000 M⁻¹ s⁻¹ | – |
| GCRHSAIGVTRQRRAR (source: synthetic peptide) [Vpr^75-90 (R80A)] | – | – | – | – | 7500 nM | 0.027 s⁻¹ | 3800 M⁻¹ s⁻¹ | – |
| full-length synthetic HIV-1 Vpr (Vpr^1-96) (natural protein) MEQAPEDQGPQREPYNEWTLELLEELKSEAVRHFPRIWLHNLGQHIYETYGDTWAGVEAIIRILQQLLFIHFRIGCRHSRIGVTRQRRARNGASRS | – | – | – | – | 310 nM and 320 nM | 0.007 s⁻¹ and 0.00422 s⁻¹ | 32000 M⁻¹ s⁻¹ and 16000 M⁻¹ s⁻¹ | – |
| AVRHFPRIWLH [Vpr^30-40] | – | – | – | – | – | – | – | binds |
